Details: Escherichia coli (strain K12), CD, reversible: yes, whole UniProt chain shown; for Tm: Thermal; for denaturant midpoint (higher = more stable) / unfolding free energy: 25 °C, GdnHCl

B1: Ribonuclease HI wild type, P0A7Y4 (protein)
chain: MLKQVEIFTDGSCLGNPGPGGYGAILRYRGREKTFSAGYTRTTNNRMELMAAIVALEALKEHCEVILSTDSQYVRQGITQWIHNWKKRGWKTADKKPVKNVDLWQRLDAALGQHQIKWEWVKGHAGHPENERCDELARAAAMNPTLEDTGYQVEV
In the case of B1, the Tm (pH 3, glycine-HCl 10 mM) is reported as 49.4 °C, the “denaturant midpoint (higher = more stable)” value (pH 5.5, Sodium acetate 20 mM) is reported as 1.79 M and the unfolding free energy (pH 5.5, Sodium acetate 20 mM) is reported as 9.21 kcal/mol. The Tm (pH 5.5, Sodium acetate 20 mM) was 52.7 °C, the Tm (pH 7.8, Sodium phosphate 20 mM) was 50.2 °C and the “denaturant midpoint (higher = more stable)” value (pH 8.2, Tris-HCl 20 mM) was 1.65 M. For the same protein, the unfolding free energy (pH 8.2, Tris-HCl 20 mM) was 8.49 kcal/mol.
